Here are results for one molecule from patent US20190248877A1 (Hoffmann-La Roche, published 2019).

Holding throughout (test): SPR Biacore T200, biotinylated TnC on SA chip, Fab as analyte, 1:1 fit
For assay [1], the target named is T1, cynoTNC (recombinant cynomolgus TnC antigen) (cynomolgus, biotin on the C-terminal avi-tag where used biotinylated (Example 5)).
T1 construct: GST may have been cleaved off by thrombin; The text says this construct lacks the C domain
T1 chain: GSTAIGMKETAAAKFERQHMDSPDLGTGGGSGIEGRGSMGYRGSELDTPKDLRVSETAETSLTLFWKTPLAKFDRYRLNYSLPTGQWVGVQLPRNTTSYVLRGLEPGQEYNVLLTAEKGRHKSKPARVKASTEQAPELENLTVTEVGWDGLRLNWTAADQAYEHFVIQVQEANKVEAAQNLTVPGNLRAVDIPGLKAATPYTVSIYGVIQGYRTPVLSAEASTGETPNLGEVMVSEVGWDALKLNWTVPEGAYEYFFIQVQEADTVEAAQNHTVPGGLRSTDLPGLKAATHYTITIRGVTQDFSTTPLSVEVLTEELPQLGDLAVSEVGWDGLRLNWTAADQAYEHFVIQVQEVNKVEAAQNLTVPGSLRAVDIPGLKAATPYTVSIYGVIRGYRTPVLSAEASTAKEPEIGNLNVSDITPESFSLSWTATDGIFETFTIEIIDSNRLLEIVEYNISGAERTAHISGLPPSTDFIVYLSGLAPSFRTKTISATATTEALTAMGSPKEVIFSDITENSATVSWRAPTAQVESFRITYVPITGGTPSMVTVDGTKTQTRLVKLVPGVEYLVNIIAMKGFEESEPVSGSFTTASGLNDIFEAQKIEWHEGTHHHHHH
The procedure: (§1) Binding of the anti-TnC IgGs 18D4, 11C7 and the Fab fragment of anti-TnC 18D4 to human, murine and cynomolgus TnC (antigens according to Table 4) was assessed by surface plasmon resonance (SPR). All SPR experiments were performed on a Biacore T200 at 25° C. with HBS-EP as running buffer (0.01 M HEPES pH 7.4, 0.15 M NaCl, 3 mM EDTA, 0.005% Surfactant P20, Biacore, Freiburg/Germany).
(§2) A 20 μg/ml stock solution of biotinylated human, murine or cynomolgus TnC was injected on a SA chip, with the aim to immobilize up to 100 RU using the immobilization wizard function.
(§3) An additional dissociation step of 1800s was performed for the highest concentration of IgG. After each step the surface was regenerated following two sequential injections of 10 mM glycine pH2.1 for 60 s. Bulk refractive index differences were corrected for by subtracting the response obtained in a reference flow cell without TNC. Affinity and avidity were calculated using the Langmuir 1:1 kinetic model. However, as the KD for the 1:1 fitting of bivalent interactions is an apparent value only, it should only be used for comparisons.

The target in assay [2] is T2, muTNC (recombinant murine TnC antigen) (mouse, biotin on the C-terminal avi-tag where used biotinylated (Example 5)).
T2 construct: GST may have been cleaved off by thrombin; The text says this construct lacks the C domain; also called mouse TnC
T2 chain: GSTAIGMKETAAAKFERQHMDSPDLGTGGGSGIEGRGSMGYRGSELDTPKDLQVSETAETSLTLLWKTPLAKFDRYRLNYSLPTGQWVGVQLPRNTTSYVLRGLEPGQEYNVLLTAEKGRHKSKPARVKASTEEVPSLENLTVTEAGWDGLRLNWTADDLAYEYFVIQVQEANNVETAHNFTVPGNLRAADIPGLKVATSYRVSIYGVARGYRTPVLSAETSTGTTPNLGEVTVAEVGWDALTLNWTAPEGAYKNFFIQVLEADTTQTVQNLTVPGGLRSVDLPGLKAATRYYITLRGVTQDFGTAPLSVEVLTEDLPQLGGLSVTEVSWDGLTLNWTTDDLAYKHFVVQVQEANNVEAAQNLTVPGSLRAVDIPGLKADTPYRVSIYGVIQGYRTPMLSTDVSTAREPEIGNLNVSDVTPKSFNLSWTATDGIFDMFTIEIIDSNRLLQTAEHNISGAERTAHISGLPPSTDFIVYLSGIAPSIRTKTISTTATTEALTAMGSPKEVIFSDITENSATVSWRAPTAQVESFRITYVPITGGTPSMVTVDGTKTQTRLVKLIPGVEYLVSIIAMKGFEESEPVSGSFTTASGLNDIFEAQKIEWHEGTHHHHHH
The procedure: as §1, §2, §3

Assay [3] concerns the target T3, huTNC (recombinant human TnC antigen) (human, UniProt P24821 984-1798, biotin on the C-terminal avi-tag where used biotinylated (Examples 5 and 10)).
T3 sequence: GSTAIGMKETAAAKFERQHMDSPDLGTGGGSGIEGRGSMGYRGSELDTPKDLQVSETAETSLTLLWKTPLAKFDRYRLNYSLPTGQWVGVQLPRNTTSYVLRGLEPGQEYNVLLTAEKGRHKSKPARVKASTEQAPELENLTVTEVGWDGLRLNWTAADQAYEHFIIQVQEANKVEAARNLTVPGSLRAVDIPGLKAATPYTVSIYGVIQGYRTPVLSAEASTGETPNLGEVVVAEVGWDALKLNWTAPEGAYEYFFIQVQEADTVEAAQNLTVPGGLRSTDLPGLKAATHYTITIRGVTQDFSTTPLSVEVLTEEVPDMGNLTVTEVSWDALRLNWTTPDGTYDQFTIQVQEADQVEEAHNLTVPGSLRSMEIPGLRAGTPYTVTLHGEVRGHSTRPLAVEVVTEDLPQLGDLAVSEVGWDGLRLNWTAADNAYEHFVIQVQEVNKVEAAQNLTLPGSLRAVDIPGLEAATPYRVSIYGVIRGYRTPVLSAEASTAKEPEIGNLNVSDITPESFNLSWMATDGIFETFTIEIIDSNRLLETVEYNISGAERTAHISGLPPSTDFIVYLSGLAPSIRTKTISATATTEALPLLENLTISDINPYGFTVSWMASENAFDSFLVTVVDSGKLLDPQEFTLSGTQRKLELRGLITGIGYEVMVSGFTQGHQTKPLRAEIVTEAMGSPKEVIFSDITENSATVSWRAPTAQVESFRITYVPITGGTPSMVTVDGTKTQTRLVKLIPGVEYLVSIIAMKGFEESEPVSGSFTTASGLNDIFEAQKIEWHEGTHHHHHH
The procedure:
as §1, §2, §3

B1: anti-TnC clone 18D4 Fab fragment (Fab, V domains shown)
VH: QVQLVQSGAEVKKPGSSVKVSCKASGGTFSSYAISWVRQAPGQGLEWMGGIIPIFGTANYAQKFQGRVTITADKSTSTAYMELSSLRSEDTAVYYCAKGNFYGGLDYWGQGTTVTVSS
VL: DIQMTQSPSTLSASVGDRVTITCRASQSISSWLAWYQQKPGKAPKLLIYDASSLESGVPSRFSGSGSGTEFTLTISSLQPDDFATYYCQQNKKFPSGTFGQGTKVEIK
As to B1, the Kd in assay [1] was 6.69 nM; in assay [2] it was 6.5 nM; in assay [3], 1.44 nM.
